T1: filaments of keratins 7 and 18 (human, UniProt P08729 1-469; P05783 1-430)
T1 construct: keratin 7, recombinant human; keratin 18, recombinant human; In vitro assembled keratin filaments; also called keratin filaments
T1 sequence (looked up) 1: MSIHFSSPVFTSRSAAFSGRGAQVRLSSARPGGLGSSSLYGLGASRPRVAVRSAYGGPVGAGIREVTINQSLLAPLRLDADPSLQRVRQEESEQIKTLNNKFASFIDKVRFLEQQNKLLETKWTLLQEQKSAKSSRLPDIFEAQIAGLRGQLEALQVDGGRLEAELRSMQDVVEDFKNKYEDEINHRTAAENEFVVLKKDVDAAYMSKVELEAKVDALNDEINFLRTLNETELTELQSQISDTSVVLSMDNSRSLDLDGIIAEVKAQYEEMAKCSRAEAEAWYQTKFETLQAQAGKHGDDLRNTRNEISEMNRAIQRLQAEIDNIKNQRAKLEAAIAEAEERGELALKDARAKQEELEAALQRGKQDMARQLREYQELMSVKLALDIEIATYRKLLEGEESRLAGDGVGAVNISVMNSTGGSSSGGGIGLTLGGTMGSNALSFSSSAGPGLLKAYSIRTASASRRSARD
T1 sequence (looked up) 2: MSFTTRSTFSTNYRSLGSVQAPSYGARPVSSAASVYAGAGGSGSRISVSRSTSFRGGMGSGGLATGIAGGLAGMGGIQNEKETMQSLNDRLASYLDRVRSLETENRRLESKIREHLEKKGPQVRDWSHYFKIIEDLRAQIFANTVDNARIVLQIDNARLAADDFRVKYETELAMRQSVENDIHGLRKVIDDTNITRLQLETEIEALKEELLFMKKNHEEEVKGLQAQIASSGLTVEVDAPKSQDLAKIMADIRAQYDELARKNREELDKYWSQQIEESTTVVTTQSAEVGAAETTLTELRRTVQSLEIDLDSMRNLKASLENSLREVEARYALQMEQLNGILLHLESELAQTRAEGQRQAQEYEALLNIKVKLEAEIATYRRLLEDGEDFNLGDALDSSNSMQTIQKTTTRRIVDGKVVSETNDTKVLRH

B1: wild-type αB-crystallin (CRYAB, HSPB5) (natural protein, human, UniProt P02511 1-175, looked up)
chain: MDIAIHHPWIRRPFFPFHSPSRLFDQFFGEHLLESDLFPTSTSLSPFYLRPPSFLRAPSWFDTGLSEMRLEKDRFSVNLDVKHFSPEELKVKVLGDVIEVHGKHEERQDEHGFISREFHRKYRIPADVDPLTITSSLSSDGVLTVNGPRKQVSGPERTIPITREEKPAVTAAPKK
notes: αB-crystallin (CRYAB, HSPB5), human; Polydisperse oligomer (apparent size about 520 kDa by SEC); also called WT CRYAB; WT αB-crystallin
B2: R120G αB-crystallin (R120G CRYAB) (natural protein, human, UniProt P02511 1-175, looked up)
chain: MDIAIHHPWIRRPFFPFHSPSRLFDQFFGEHLLESDLFPTSTSLSPFYLRPPSFLRAPSWFDTGLSEMRLEKDRFSVNLDVKHFSPEELKVKVLGDVIEVHGKHEERQDEHGFISREFHGKYRIPADVDPLTITSSLSSDGVLTVNGPRKQVSGPERTIPITREEKPAVTAAPKK
notes: αB-crystallin (CRYAB, HSPB5), human, with the disease-causing mutation R120G; Mutation found in a human family with desmin-related myopathy and cataract; Oligomer of apparent size 684 kDa by SEC; also called CRYAB R120G

Assays:
[1] = target: desmin (assembled into filaments, or immobilised on a sensor chip) (not stated (chicken gizzard desmin or recombinant human desmin prepared)) (UniProt P17661); assay: co-sedimentation; high-speed; filaments assembled at 0.2 mg ml^-1 with WT CRYAB at 1 : 1 molar ratio; 20 mM HEPES, 100 mM NaCl, 1 mM MgCl2, 1 mM DTT, pH 6.3; 23, 39 or 44°C
[2] = target: T1, filaments of keratins 7 and 18; assay: co-sedimentation; filaments assembled with the sHSP (desmin : sHSP 1 : 1 molar ratio) at three temperatures (22, 37, 44°C named in the text); pellet and supernatant by SDS-PAGE, Coomassie Blue; conditions: both partners purified
[3] = target: the molecule itself; assay: SEC; Superformance column packed with Fractogel EMD BioSEC, calibrated with protein standards; 20 mM Tris-HCl pH 7.4, 100 mM NaCl, room temperature; self-association into oligomers
[4] = target: T2, glial fibrillary acidic protein (GFAP) (human, UniProt P14136 1-432); assay: SPR; Biacore 3000; desmin, GFAP and vimentin immobilised on a CM5 chip; CRYAB injected at 20 g ml^-1 (so in the source) for 7 min at 37°C, then washed 7 min; 10 mM HEPES pH 7.4, 0.15 M NaCl, 3.4 mM EDTA, 0.005% P20; double referencing; conditions: both partners purified
T2 construct: glial fibrillary acidic protein, recombinant human; Assembled into filaments for co-sedimentation and viscometry; immobilised on the chip for SPR; also called WT GFAP; GFAP filaments
T2 sequence (P14136 whole entry): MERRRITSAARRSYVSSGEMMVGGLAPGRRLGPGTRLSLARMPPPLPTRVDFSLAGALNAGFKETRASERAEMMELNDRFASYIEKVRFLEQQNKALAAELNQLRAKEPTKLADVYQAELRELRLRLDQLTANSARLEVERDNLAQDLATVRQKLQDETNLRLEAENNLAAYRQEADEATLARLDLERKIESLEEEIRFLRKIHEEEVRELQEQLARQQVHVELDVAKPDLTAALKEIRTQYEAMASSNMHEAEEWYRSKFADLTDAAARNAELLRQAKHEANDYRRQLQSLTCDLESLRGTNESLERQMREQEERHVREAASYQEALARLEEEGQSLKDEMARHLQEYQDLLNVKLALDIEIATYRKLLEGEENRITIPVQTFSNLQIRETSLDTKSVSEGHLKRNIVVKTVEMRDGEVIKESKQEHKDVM

| Molecule | percent of the total CRYAB co-sedimented (pH 6.3, 39°C to 44°C) [1] | binding result [2] | binding result [3] | binding result [4] |
| --- | --- | --- | --- | --- |
| wild-type αB-crystallin (CRYAB, HSPB5) (from UniProt P02511 1-175) (natural protein) | > 35 per cent | – | – | – |
| B1 | – | binds | binds | – |
| B2 | – | binds | binds | binds |
